Earlier results on eight sequences are cited in PMC9792189.

The target in this data set is SARS-CoV-2 S1/RBD (target in cited aptamer papers) (SARS-CoV-2) (UniProt P0DTC2). Description: SPR. (SPR reads the build-up and loss of mass on a sensor chip optically.)
Usually Kd stands for the concentration at which binding is half-saturated. Take “TTCCGGTTAATTTATGCTCTACCCGTCCACCTACCGGAA [MSA1T]”: the dissociation constant (Kd) is 2.8 nM. Consider “CAGCACCGACCTTGTGCTTTGGGAGTGCTGGTCCAAGGGCGTTAATGGACA [CoV2-RBD-1C]”, for which the Kd was 3.1 nM. Take “TCGAGTGGCTTGTTTGTAATGTAGGGTTCCGGTCGTGGGT [Aptamer-1]”: the dissociation constant Kd was 28 nM.

Regarding GGGGTGGGGTAGTGGTATGGAGCG [XN-268s], the Kd was 4.26 nM.

For “AAAGCCACAACGAGCTCGGGTGAAAGCAGTCCGTTGAGTAGGCTTGCGGCTGCGTGGCATATCGATT [SSapt1]”, the Kd is 105 nM.

For “TTCCGGTTAATTTATGCTCTACCCGTCCACCTACCGGAATTTTTTTTTTTTTTTTTTTTTTTTTTTTTTACGGGTTTGGCGTCGGGCCTGGCGGGGGGATAGTGCGGT [DSA1N5]”, the equilibrium dissociation constant (Kd) was 0.51 nM. Turning to “ACGGGTTTGGCGTCGGGCCTGGCGGGGGGATAGTGCGGT [MSA5T]”, the dissociation constant (Kd) was 10.1 nM.

Take “ATTACCGATGGCTTGTTTGTAATGTAGGGTTCCGTCGGAT [Aptamer-2]”: the Kd is 27 nM.
